Where no end group is shown, it is not given here. The star is where a group is joined. Biotin = O=C1N[C@H]2[C@H](CS[C@H]2CCCCC(=O)*)N1; AEEA = NCCOCCOCC(=O)O
B1: gurmarin variant # 12 (seq # 194297) (peptide)
chain: MHHHHHHSGSSSGSGCVKKDELCVFYFPNCCEPLECRWVNDNYGWCGSGSSGSS
B2: gurmarin variant # 9 (seq # 194259) (peptide)
chain: MHHHHHHSGSSSGSGCVKKDELCARWDLVCCEPLECIYTSELYATCGSGSSGSS
B3: gurmarin variant # 16 (seq # 194533) (peptide)
chain: B2 chain
B4: synthetic biotinylated peptide pp26 9 n (Seq # 197588-1) (peptide)
peptide: {Biotin-AEEA}-RSNVIPLNEVWYDTGWDRPHRSRLSIDDDA
notes: also called pp26 peptide 9; pp26 clone 9
B5: gurmarin variant # 14 (seq # 194479) (peptide)
chain: MHHHHHHSGSSSGSGCVKKDELCTTASKSCCEPLECKWTNEHFGTCGSGSSGSS
B6: synthetic biotinylated peptide gurmarin 15 n (Seq # 194511-1) (peptide)
peptide: {Biotin-AEEA}-SGCVKKDELCSQSVPMCCEPLECKWFNENYGICGS
modifications: ends and bridges not checked
notes: also called gurm 15n; gurmarin peptide 15
B7: gurmarin variant # 10 (seq # 194264) (peptide)
chain: MHHHHHHSGSSSGSGCVKKDELCELAVDECCEPLECFQMGHGFKRCGSGSSGSS
B8: gurmarin variant # 11 (seq # 194328) (peptide)
chain: MHHHHHHSGSSSGSGCVKKDELCNWVTPMRCEPLECLGHGLGYAYCGSGSSGSS
B9: synthetic biotinylated peptide pp26 15 n (Seq # 198000-1) (peptide)
peptide: {Biotin-AEEA}-RSWRDTRKLHMRHYFPLAIDSYWDHTLRDA
notes: also called pp26 peptide 15; pp26 clone 15
B10: gurmarin variant # 15 (seq # 194511) (peptide)
chain: MHHHHHHSGSSSGSGCVKKDELCSQSVPMCCEPLECKWFNENYGICGSGSSGSS

Assays:
[1] = molecular target: T1, Pertussis toxin (PT) (Bordetella pertussis, UniProt P04977 35-269; P04978 28-226; P04979 29-227; P0A3R5 43-152; P04981 35-133); assay: 35S-labelled, His-tag purified free peptide (TNT expressed) on biotinylated PT on streptavidin magnetic beads, scintillation counting (test 1)
T1 construct: mature; also called purified PT; biotinylated PT
Description: (§1) By this measure, those bated with biotinylated PT immobilized on streptavidin-magnetic beads for 1 h at RT. The beads were washed 3× with HBS-buffer and then resuspended in water and analyzed by liquid scintillation counting. In control experiments each candidate was incubated with streptavidin beads only (without PT).

[2] = molecular target: T1, Pertussis toxin (PT); assay: ~200 pmol peptide on streptavidin sepharose with 100 pmol purified PT, gel and silver staining
[3] = molecular target: T1, Pertussis toxin (PT); assay: 35S-labelled, His-tag purified free peptide (TNT expressed) on biotinylated PT on streptavidin magnetic beads, scintillation counting (test 1); remark: listed apart in the source
Description: as §1

[4] = molecular target: T1, Pertussis toxin (PT); assay: 20 pmol sepharose-immobilized peptide with 100 pmol (500 nM) PT, bound PT quantified by gel, 1:1 ratio assumed
[5] = molecular target: T1, Pertussis toxin (PT); assay: BIAcore 2000, 2.5-100 nM peptide over PT amine coupled to a CM5 chip (6000 RU), HBS/EP, room temperature

Binder | binding result [1] | Fraction of binding active peptide [4] | also measured
B1 | binds | – | –
RSSHCRHRNCHTITRGNMRIETPNNIRKDAK(Biotin) (cysteine pairing not given here) [synthetic biotinylated peptide pp26 5 c (Seq # 197557-1)] | – | – | binding result [2]: binds
B2 | binds | – | –
B3 | binds | – | –
MGRGSHHHHHHARSTMNTNRMDIQRLMTNHVKRDSSPGSIDANAPKASAI [PP26 variant # 6 (seq # 197596)] | – | – | binding result [3]: binds
MGRGSHHHHHHARSSHCRHRNCHTITRGNMRIETPNNIRKDANAPKASAI [PP26 variant # 5 (seq # 197557)] | – | – | binding result [3]: binds
B4 | – | > 50% | Kd [5]: 7.5 nM; koff [5]: 0.001 s⁻¹; kon [5]: 130000 M⁻¹ s⁻¹
{Biotin-AEEA}-SGCVKKDELCARWDLVCCEPLECIYTSELYATCG (cysteine pairing not given here, also called gurm 9n; gurmarin peptide 9) [synthetic biotinylated peptide gurmarin 9 n (Seq # 194259-1)] | – | > 12.5% | –
B5 | binds | – | –
B6 | – | > 50% | –
B7 | binds | – | –
{Biotin-AEEA}-SGCVKKDELCELAVDECCEPLECFQMGHGFKRCG (ends and bridges not checked, also called gurm 10n) [synthetic biotinylated peptide gurmarin 10 n (Seq # 194264-1)] | – | > 5% | –
{Biotin-AEEA}-RSSHCRHRNCHTITRGNMRIETPNNIRKDA (cysteine pairing not given here) [synthetic biotinylated peptide pp26 5 n (Seq # 197557-2)] | – | > 5% | –
B8 | binds | – | –
MGRGSHHHHHHARSWRDTRKLHMRHYFPLAIDSYWDHTLRDANAPKASAI [PP26 variant # 15 (seq # 198000)] | – | – | binding result [3]: binds
B9 | – | > 12.5% | –
MGRGSHHHHHHARSWQPEVKMSSLVDTSQTVGAAVETRTTDANAPKASA [PP26 variant # 14 (seq # 197825)] | – | – | binding result [3]: binds
B10 | binds | – | –
{Biotin-AEEA}-SGCVKKDELCELAIDECCEPLECTKGDLGFRKCG (ends and bridges not checked, also called gurm 19n) [synthetic biotinylated peptide gurmarin 19 n (Seq # 194737-1)] | – | > 5% | –
